Here are results for 1 molecule from patent US20230129812A1, “COMPOSITIONS AND METHODS FOR TREATING PULMONARY HYPERTENSION” (Acceleron Pharma Inc., priority 2020, published 2023).

Test [1] deals with T1, GDF11 (Homo sapiens, UniProt O95390).
T1 sequence (O95390 299-407): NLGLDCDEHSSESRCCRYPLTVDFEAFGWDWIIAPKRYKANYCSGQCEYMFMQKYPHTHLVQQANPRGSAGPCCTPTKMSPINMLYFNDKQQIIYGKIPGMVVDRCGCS
The test is described as follows: A-204 reporter gene assay, pGL3(CAGA)12 luciferase. Conditions: A-204 reporter gene assay. The class given is cell-based. The essentials: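 Human rhabdomyosarcoma A-204 cells transfected with SMAD-responsive pGL3(CAGA)12 luciferase reporter (optionally with pRLCMV). Ligand in medium + 0.1% BSA, preincubated ~1 h with Fc-fusion inhibitor before addition to cells; after ~6 h cells lysed and luciferase activity measured.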

Test [2] addresses T2, GDF8 (Homo sapiens, UniProt O14793).
T2 sequence (O14793 267-375): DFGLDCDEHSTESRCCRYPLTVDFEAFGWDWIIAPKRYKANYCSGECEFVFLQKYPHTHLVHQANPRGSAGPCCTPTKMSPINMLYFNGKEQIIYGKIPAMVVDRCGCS
The test can be described thus: A-204 reporter gene assay, pGL3(CAGA)12 luciferase. The class given is cell-based. The text has this: An A-204 reporter gene assay was used to evaluate the effects of ActRIIB-Fc proteins and ActRIIB variant Fc fusion polypeptides on signaling by GDF-11 and activin A. Cell line: human rhabdomyosarcoma (derived from muscle). Reporter vector: pGL3(CAGA)12 (described in Dennler et al, 1998, EMBO 17: 3091-3100). The CAGA12 motif is present in TGF-beta responsive genes (e.g., PAI-1 gene), so this vector is of general use for factors signaling through SMADs.
Day 1: Split A-204 cells into 48-well plate.
Day 2: A-204 cells transfected with 10 ug pGL3(CAGA)12 or pGL3(CAGA)12(10 ug)+pRLCMV (1 pg) and Fugene.
Day 3: Add factors (diluted into medium+0.1% BSA). Inhibitors need to be preincubated with factors for 1 hr before adding to cells. Six hrs later, cells were rinsed with PBS and lysed.
This is followed by a luciferase assay.
As described below, ActRIIB variants were also tested in this assay.
In addition, an A-204 Reporter Gene Assay was used to evaluate the effects of ALK4-Fc:ActRIIB-Fc heterodimer and ActRIIB-Fc:ActRIIB-Fc homodimer on signaling by activin A, activin B, GDF11, GDF8, BMP10, and BMP9. Cell line: Human Rhabdomyosarcoma (derived from muscle). Reporter vector: pGL3(CAGA)12 (as described in Dennler et al, 1998, EMBO 17: 3091-3100). The CAGA12 motif is present in TGFβ responsive genes (PAI-1 gene), so this vector is of general use for factors signaling through Smads. An exemplary A-204 Reporter Gene Assay is outlined below. • Day 1: Split A-204 cells into 48-well plate. • Day 2: A-204 cells transfected with 10 ug pGL3(CAGA)12 or pGL3(CAGA)12(10 ug)+pRLCMV (1 ug) and Fugene. • Day 3: Add factors (diluted into medium+0.1% BSA). Inhibitors need to be pre-incubated with Factors for about one hr before adding to cells. About six hrs later, cells are rinsed with PBS and then lysed.
Following the above steps, a Luciferase assay was performed.

For test [3], the system named is rat model of pulmonary arterial hypertension (PAH), monocrotaline-induced. The test is described as follows: Monocrotaline (MCT) rat model of pulmonary arterial hypertension. It is filed as in vivo, Sprague Dawley rats. Conditions: MCT rats, compared to monocrotaline treated rats (vehicle). The procedure:
The effects of an ActRIIA-mFc fusion protein (ActRIIA-mFc homodimer as described in Example 1), an ALK4-Fc-ActRIIB-Fc heterodimer (as described in Examples 12 and 13), and sildenafil (a phosphodiesterase-5 inhibitor approved for the treatment of PAH) were examined in a rat model of pulmonary arterial hypertension (PAH). In this model, Sprague Dawley rats received a […] injection of monocrotaline (MCT) to induce PAH 24 hours prior to start of therapy.
Rats were separated into different treatment groups (10 mice per group): 1) treatment with MCT (60 mg/kg administered i.p. as a single dose at day 1 of study) and Tris buffered saline (i.p. as 1 ml/kg, every three days) (vehicle treatment group), 2) treatment with an ActRIIA-mFc polypeptide (10 mg/kg administered i.p. every three days) and MCT (60 mg/kg administered i.p. as a single dose at day 1 of study), 3) treatment with an ALK4-Fc:ActRIIB-Fc heterodimer (10 mg/kg administered i.p. every three days) and MCT (60 mg/kg administered i.p. as a single dose at day 1 of study), 4) treatment with sildenafil (30 mg/kg administered orally twice daily) and MCT (60 mg/kg administered i.p. as a single dose at day 1 of study), and 5) control rats (Tris buffered saline administered i.p. as 1 ml/kg, every three days). Rats were treated for 28 days. Body weights were recorded prior to first dose on Day 1 and then weekly throughout the study.
On day 28, rats were anesthetized by an intraperitoneal injection of ketamine/xylazine (80/10 mg/kg). An incision was made in the neck, and a jugular vein was isolated and ligated anteriorly. A fluid-filled pressure catheter was introduced into the right jugular vein to measure pulmonary artery pressure (PAP). Another incision was made in the inguinal region, and femoral artery was isolated and ligated anteriorly. […] Mean arterial pressure and right PAP were monitored using the Notocord HEM (Croissy sur Seine, Frnace) v3.5 data capture system for approximately 5-10 minutes until stable measurements were obtained. During the measurements, rats were maintained at approximately 37° C. on a heating pad and body temperature was monitored throughout the procedure with a rectal temperature probe. […] Hypertrophy was assessed, in part, by calculating RV/LV+S. The lungs were also weighed.
Similar trends were observed on vessel muscularity based on histopathologic scoring. […] Pulmonary arterioles from vehicle treated rats were determined to be 62.3% completely muscularized, 36.4% partially muscularized, and 1.4% non-muscularized. […] Histopathological scoring of smooth muscle hypertrophy of pulmonary arterioles were also recorded as follows: 0 (normal), 1 (minimal), 2 (mild), 3 (moderate), or 4 (marked).

B1: ALK4-Fc:ActRIIB-Fc heterodimer: heteromeric complex of extracellular domains of human ActRIIB and human ALK4, each separately fused to an Fc domain with a linker (protein)
chain 1: GRGEAETRECIYYNANWELERTNQSGLERCEGEQDKRLHCYASWRNSSGTIELVKKGCWLDDFNCYDRQECVATEENPQVYFCCCEGNFCNERFTHLPEAGGPEVTYEPPPTAPTGGGTHTCPPCPAPELLGGPSVFLFPPKPKDTLMISRTPEVTCVVVDVSHEDPEVKFNWYVDGVEVHNAKTKPREEQYNSTYRVVSVLTVLHQDWLNGKEYKCKVSNKALPAPIEKTISKAKGQPREPQVYTLPPSRKEMTKNQVSLTCLVKGFYPSDIAVEWESNGQPENNYKTTPPVLKSDGSFFLYSKLTVDKSRWQQGNVFSCSVMHEALHNHYTQKSLSLSPGK
chain 2: SGPRGVQALLCACTSCLQANYTCETDGACMVSIFNLDGMEHHVRTCIPKVELVPAGKPFYCLSSEDLRNTHCCYTDYCNRIDLRVPSGHLKEPEHPSMWGPVETGGGTHTCPPCPAPELLGGPSVFLFPPKPKDTLMISRTPEVTCVVVDVSHEDPEVKFNWYVDGVEVHNAKTKPREEQYNSTYRVVSVLTVLHQDWLNGKEYKCKVSNKALPAPIEKTISKAKGQPREPQVYTLPPSREEMTKNQVSLTCLVKGFYPSDIAVEWESNGQPENNYDTTPPVLDSDGSFFLYSDLTVDKSRWQQGNVFSCSVMHEALHNHYTQKSLSLSPG
For the molecule B1, the “inhibition of GDF11 signaling” value in test [1] is “potent inhibitors”. For the same molecule, the “inhibition of GDF8 signaling” value in test [2] is listed as “potent inhibitors”. Besides, the “improvement in body weight” value in test [3] (28 days) was “+5.1%”. The “decrease of right heart hypertrophy” value in test [3] (day 28, RV/LV+S) worked out at 39.6%. Moreover, in test [3] (day 28), the “decrease of lung weight” value came to 19.0% and the “reduction of elevated PAP” value is recorded as 44.6%.
